{"source": "patent US11649460B2", "about": "“DNA aptamers, method for inhibiting human galectin-1 and method of treating a mammal in need thereof” (priority 2020, dated 2023)", "molecules": {"B1": {"name": "CTGACACAGCAGGTTGGTGCCAACTAACACCATAAGAATACCCCGCTCCAAATAAGCCCACACGTAAACCCGAGTCGAGCAATCTCGAAAT (nucleic acid)", "DNA": "CTGACACAGCAGGTTGGTGCCAACTAACACCATAAGAATACCCCGCTCCAAATAAGCCCACACGTAAACCCGAGTCGAGCAATCTCGAAAT", "modifications": "chemistry not given here", "notes": "DNA aptamer that recognizes human galectin-1"}}, "key": {"[1]": {"tested_on": "DU-145 human prostate carcinoma cell line", "assay": "SRB cell proliferation (cytotoxicity) assay, DU-145", "excerpt": "(§1) The XLSTAT software was used to determine the IC50, TGI and LC50 values using the four-parameter logistic curve equation."}, "[2]": {"tested_on": "A-375 human malignant melanoma", "assay": "SRB cell proliferation (cytotoxicity) assay, A-375", "excerpt": "as §1"}, "[3]": {"tested_on": "HCT 116 human colorectal carcinoma", "assay": "SRB cell proliferation (cytotoxicity) assay, HCT 116", "excerpt": "as §1"}, "[4]": {"tested_on": "NHF human foreskin skin fibroblasts", "assay": "in vitro", "excerpt": "as §1"}, "[5]": {"molecular_target": "T1, native human galectin-1 (hGal1) (Homo sapiens, UniProt P09382)", "T1 construct": "42; made in house; host or cells: E. coli strain M-15", "T1 sequence (P09382 2-135)": "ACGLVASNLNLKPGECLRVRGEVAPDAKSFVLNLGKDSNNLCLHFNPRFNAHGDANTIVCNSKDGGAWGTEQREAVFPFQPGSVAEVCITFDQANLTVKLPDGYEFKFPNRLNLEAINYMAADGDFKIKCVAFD", "assay": "Thermofluor thermal shift assay (TSA), native galectin-1", "assay_type": "binding", "conditions": "5 μM protein", "in_short": "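Purified native or alkylated hGal1 (5 μM) was incubated 30 min with increasing aptamer SEQ ID NO.: 4 concentrations in PBS 1× with 5× SYPRO Orange. Samples were heated 25–95 °C at 1 °C/min, and melting temperature was derived from the fluorescence denaturation curves.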"}, "alkylated galectin-1": {"tested_on": "alkylated galectin-1", "sequence (P09382 2-135)": "as above", "assay": "Thermofluor thermal shift assay (TSA), alkylated galectin-1", "assay_type": "binding, human", "conditions": "5 μM protein", "procedure": "In an attempt to screen among the selected aptamers that better interact with hGal1, differential scanning fluorimetry (Termofluor) was used to characterize their binding to its target. Among all the selected aptamers, SEQ ID NO.: 4 seemed to have a more intense effect on hGal1 thermoshift and so was chosen for further analysis. The selected aptamer had its interaction evaluated with native and alkylated galectin-1. […] The respective thermal displacements were evaluated as a function of an increasing concentration of SEQ ID NO.: 4 (FIG. 1).\nThermofluor experiments were performed on an Mx3005 RT-PCR (Agilent Technologies) using the SYPRO® Orange dye (492/610 nm) (Invitrogen) as fluorescent probe. The purified (native and alkylated) protein samples were incubated for 30 min with increasing concentration of the molecules of interest, centrifuged, and submitted to the thermal denaturation assay, totalizing four distinct experiments. In a 96-well plate (Agilent Technologies) 20 μl of the reaction containing 5 μM of each protein in buffer PBS 1× and 5× SYPRO® Orange were heated from 25° C. to 95° C. at a rate of 1° C./min. The experimental result was processed as in the protocol previously described and the melting temperature was obtained using GraphPad Prism software (www.graphpad.com)."}, "human galectin-1 (hGal1)": {"molecular_target": "T2, human galectin-1 (hGal1) (Homo sapiens, UniProt P09382)", "T2 construct": "42; made in house; host or cells: E. coli strain M-15", "T2 sequence (P09382 2-135)": "as above", "assay": "Tryptophan fluorescence quenching (Stern-Volmer)", "assay_type": "binding", "conditions": "Stern-Volmer fit; 5 μM hGal1, aptamer 0 to 7.2 μM; read-out: apparent dissociation constant", "procedure": "Fluorescence measurements were taken by a spectrofluorimeter HITACHI F-4500, the spectra were collected by excitation and emission at a rate of 240 nm per min, using a 5 nm slit widths and recorded at room temperature. A total of 5 μM hGal1 solution was incubated for 10 hours with aptamer aliquots as quencher, from 0 to 7.2 μM, in PBS 1× buffer. The spectra were obtained between 300-450 nm after excitation at 295 nm and all buffer contributions were corrected for measurements. As previously described, the log of fluorescence quenching was evaluated by plotting it versus log of aptamer concentration. The Stern-Volmer equation was used to estimate the number of interacting sites (n) and the apparent kD.\nHuman galectin-1 tryptophan residue has an emission peak at 348 nm after […] exited. SEQ ID NO.: 4 promotes changes the fluorescence spectrum of Trp68, which is the sole Trp in the subunit of hGal1 and is one of the residues constituting its CRD. Upon the aptamer addition, fluorescence emission decreased (FIG. 1C). The fluorescence quenching log versus aptamer concentration log measurements was plotted and it was fitted with Stern-volmer equation. The best fit established apparent dissociation constant of approximately 31.9 nM and a binding site of 1.5 (FIG. 1D)."}, "[6]": {"molecular_target": "T3, hGal1-induced hemagglutination of red blood cells (Homo sapiens, UniProt P09382)", "T3 construct": "42; made in house; host or cells: E. coli strain M-15", "T3 sequence (P09382 2-135)": "as above", "assay": "Hemagglutination inhibition assay, native hGal1", "assay_type": "cell-based", "in_short": "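hGal1 (5 μM) was mixed with aptamer at 0-40 μM in PBS pH 7.4, then 3% type B+ human red blood cells were added and the mixture incubated 2 h at room temperature. Agglutination area was measured from plate photographs and expressed as relative agglutination.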"}, "alkylated Gal1": {"molecular_target": "T4, alkylated Gal1 (Homo sapiens, UniProt P09382)", "T4 construct": "42; made in house; host or cells: E. coli strain M-15", "T4 sequence (P09382 2-135)": "as above", "assay": "Hemagglutination inhibition assay, alkylated Gal1", "assay_type": "cell-based", "conditions": "alkylated Gal1 5 μM", "procedure": "FIG. 15 illustrates the hemagglutination test with constant protein concentration at 5 μM and titration of aptamers SEQ ID NO.: 4 and SEQ ID NO.: 9. (a) Titration with aptamer 4. The hemagglutination of native Gal1 was inhibited from the concentration of 10 μM of this compound.\nHemagglutination assay was adopted to assess the capacity of SEQ ID NO.: 4 in inhibiting the lectin cross-linking aggregation of red blood cells (RBC), as previously described. Briefly, using a 96-well microplates appropriate amounts of 5 μM hGal1 were blended with 50 μL of aptamer in an increasing concentrations manner (0-40 μM) in PBS 1× buffer (pH 7.4). Following, 50 μL of 3% purified type B+ RBC in PBS. After 2 h of room temperature incubation, the plate was photographed and the hemagglutination area was estimated by area calculator Sketchandcalc™ and the results were expressed as relative agglutination.\nIt was observed that treating hGal-1 with Iodoacetamide, which covalently binds the acetamide group in all solvent accessible cysteines sulfhydryl side chain, abolishes the anti-hemagglutinating activity of the aptamer. According to the proposed binding mode, this happens because Cysteines 2, 88 and 130 interact directly with the aptamer and adding the acetamide group to their side chains would disrupt specific aptamer-protein interactions (FIG. 13C)."}, "OVCAR-3 cell line": {"tested_on": "OVCAR-3 cell line", "assay": "Synergism test with cisplatin, OVCAR-3", "conditions": "aptamer 12.5 μM associated with cisplatin 3 μM", "quoted_text": "For the analysis of cell proliferation, the non-clonogenic method of sulforodamine B (SRB) was used, a protein dye that binds to the basic amino acid residues of cell proteins that were viable at the time of the fixation process. Therefore, the greater the amount of SRB bound per compartment, the less the antiproliferative activity of the item under study."}}}
{"molecule": "B1", "values": [{"measurement": "Relative viability (%) of test items", "setting": "[1]; 0.781 µM", "value": 109.3, "unit": "%"}, {"measurement": "Relative viability (%) of test items", "setting": "[1]; 1.562 µM", "value": 100.6, "unit": "%"}, {"measurement": "Relative viability (%) of test items", "setting": "[1]; 3.125 µM", "value": 104.7, "unit": "%"}, {"measurement": "Relative viability (%) of test items", "setting": "[1]; 6.25 µM", "value": 109.6, "unit": "%"}, {"measurement": "Relative viability (%) of test items", "setting": "[1]; 12.5 µM", "value": 104.3, "unit": "%"}, {"measurement": "Relative viability (%) of test items", "setting": "[1]; 25 µM", "value": 88.5, "unit": "%"}, {"measurement": "Relative viability (%) of test items", "setting": "[1]; 50 µM", "value": 68.4, "unit": "%"}, {"measurement": "Relative viability (%) of test items", "setting": "[1]; 100 µM", "value": 36.0, "unit": "%"}, {"measurement": "IC50", "setting": "[1]; read-out: IC50: Concentration to inhibit 50% of cell growth, DU-145", "value": 72.6, "unit": "µM"}, {"measurement": "Relative cell viability (%) of test items", "setting": "[2]; 0.781 µM", "value": 109.5, "unit": "%"}, {"measurement": "Relative cell viability (%) of test items", "setting": "[2]; 1.562 µM", "value": 100.6, "unit": "%"}, {"measurement": "Relative cell viability (%) of test items", "setting": "[2]; 3.125 µM", "value": 103.0, "unit": "%"}, {"measurement": "Relative cell viability (%) of test items", "setting": "[2]; 6.25 µM", "value": 97.3, "unit": "%"}, {"measurement": "Relative cell viability (%) of test items", "setting": "[2]; 12.5 µM", "value": 85.8, "unit": "%"}, {"measurement": "Relative cell viability (%) of test items", "setting": "[2]; 25 µM", "value": 35.7, "unit": "%"}, {"measurement": "Relative cell viability (%) of test items", "setting": "[2]; 50 µM", "value": "−69.0", "unit": "%"}, {"measurement": "Relative cell viability (%) of test items", "setting": "[2]; 100 µM", "value": "−72.3", "unit": "%"}, {"measurement": "TGI: Concentration for total inhibition of cell growth", "setting": "[2]; A-375", "value": 29.656, "unit": "µM"}, {"measurement": "IC50", "setting": "[2]; read-out: IC50: Concentration to inhibit 50% of cell growth, A-375", "value": 22.7, "unit": "µM"}, {"measurement": "CC50", "setting": "[2]; read-out: LC50: Concentration for 50% cell death, A-375", "value": 41.1, "unit": "µM"}, {"measurement": "Relative cell viability (%) of test items", "setting": "[3]; 0.781 µM", "value": 103.6, "unit": "%"}, {"measurement": "Relative cell viability (%) of test items", "setting": "[3]; 1.562 µM", "value": 95.4, "unit": "%"}, {"measurement": "Relative cell viability (%) of test items", "setting": "[3]; 3.125 µM", "value": 85.5, "unit": "%"}, {"measurement": "Relative cell viability (%) of test items", "setting": "[3]; 6.25 µM", "value": 85.0, "unit": "%"}, {"measurement": "Relative cell viability (%) of test items", "setting": "[3]; 12.5 µM", "value": 57.1, "unit": "%"}, {"measurement": "Relative cell viability (%) of test items", "setting": "[3]; 25 µM", "value": 24.4, "unit": "%"}, {"measurement": "Relative cell viability (%) of test items", "setting": "[3]; 50 µM", "value": 3.6, "unit": "%"}, {"measurement": "Relative cell viability (%) of test items", "setting": "[3]; 100 µM", "value": "−70.2", "unit": "%"}, {"measurement": "TGI: Concentration for total inhibition of cell growth", "setting": "[3]; HCT 116", "value": 45.410, "unit": "µM"}, {"measurement": "IC50", "setting": "[3]; read-out: IC50: Concentration to inhibit 50% of cell growth, HCT 116", "value": 16.8, "unit": "µM"}, {"measurement": "CC50", "setting": "[3]; read-out: LC50: Concentration for 50% cell death, HCT 116", "value": 84.4, "unit": "µM"}, {"measurement": "Relative viability (%) of test items", "setting": "[4]; 0.781 µM", "value": 95.3, "unit": "%"}, {"measurement": "Relative viability (%) of test items", "setting": "[4]; 1.562 µM", "value": 94.2, "unit": "%"}, {"measurement": "Relative viability (%) of test items", "setting": "[4]; 3.125 µM", "value": 98.4, "unit": "%"}, {"measurement": "Relative viability (%) of test items", "setting": "[4]; 6.25 µM", "value": 100.7, "unit": "%"}, {"measurement": "Relative viability (%) of test items", "setting": "[4]; 12.5 µM", "value": 106.6, "unit": "%"}, {"measurement": "Relative viability (%) of test items", "setting": "[4]; 25 µM", "value": 73.4, "unit": "%"}, {"measurement": "Relative viability (%) of test items", "setting": "[4]; 50 µM", "value": 19.8, "unit": "%"}, {"measurement": "Relative viability (%) of test items", "setting": "[4]; 100 µM", "value": "−25.4", "unit": "%"}, {"measurement": "TGI: Concentration for total inhibition of cell growth", "setting": "[4]; NHF", "value": 63.101, "unit": "µM"}, {"measurement": "IC50", "setting": "[4]; read-out: IC50: Concentration to inhibit 50% of cell growth, NHF", "value": 35.6, "unit": "µM"}, {"measurement": "variation of denaturation temperature (Tm) of native hGal1", "setting": "[5]", "value": "greater variation"}, {"measurement": "variation of denaturation temperature (Tm) of native hGal1", "setting": "[5]; listed as SEQ ID NO.: 4", "value": "marked decrease in Tm"}, {"measurement": "temperature variation (Tm) of alkylated galectin-1", "setting": "alkylated galectin-1", "value": "not significant"}, {"measurement": "Kd", "setting": "human galectin-1 (hGal1)", "value": "~0.0319", "unit": "µM"}, {"measurement": "inhibition effect over RBC agglutination", "setting": "[6]; 10 μM aptamer, 5 μM hGal1", "value": "approximately 75%"}, {"measurement": "inhibitory effect on galectin-induced hemagglutination", "setting": "[6]; native Gal1 5 μM", "value": "better effect"}, {"measurement": "concentration from which hemagglutination was inhibited", "setting": "[6]; native Gal1 5 μM, listed as aptamer 4", "value": 10, "unit": "µM"}, {"measurement": "effect on hemagglutination by alkylated Gal1", "setting": "alkylated Gal1", "value": "no observed effect"}, {"measurement": "decrease of cell viability versus cisplatin alone", "setting": "OVCAR-3 cell line", "value": "~60", "unit": "%"}]}
